The target in assay [1] is T1, CD133 (prominin) (human) (UniProt O43490).
T1 sequence (glycosylated (the AC133 epitope is known to be glycosylated), looked up): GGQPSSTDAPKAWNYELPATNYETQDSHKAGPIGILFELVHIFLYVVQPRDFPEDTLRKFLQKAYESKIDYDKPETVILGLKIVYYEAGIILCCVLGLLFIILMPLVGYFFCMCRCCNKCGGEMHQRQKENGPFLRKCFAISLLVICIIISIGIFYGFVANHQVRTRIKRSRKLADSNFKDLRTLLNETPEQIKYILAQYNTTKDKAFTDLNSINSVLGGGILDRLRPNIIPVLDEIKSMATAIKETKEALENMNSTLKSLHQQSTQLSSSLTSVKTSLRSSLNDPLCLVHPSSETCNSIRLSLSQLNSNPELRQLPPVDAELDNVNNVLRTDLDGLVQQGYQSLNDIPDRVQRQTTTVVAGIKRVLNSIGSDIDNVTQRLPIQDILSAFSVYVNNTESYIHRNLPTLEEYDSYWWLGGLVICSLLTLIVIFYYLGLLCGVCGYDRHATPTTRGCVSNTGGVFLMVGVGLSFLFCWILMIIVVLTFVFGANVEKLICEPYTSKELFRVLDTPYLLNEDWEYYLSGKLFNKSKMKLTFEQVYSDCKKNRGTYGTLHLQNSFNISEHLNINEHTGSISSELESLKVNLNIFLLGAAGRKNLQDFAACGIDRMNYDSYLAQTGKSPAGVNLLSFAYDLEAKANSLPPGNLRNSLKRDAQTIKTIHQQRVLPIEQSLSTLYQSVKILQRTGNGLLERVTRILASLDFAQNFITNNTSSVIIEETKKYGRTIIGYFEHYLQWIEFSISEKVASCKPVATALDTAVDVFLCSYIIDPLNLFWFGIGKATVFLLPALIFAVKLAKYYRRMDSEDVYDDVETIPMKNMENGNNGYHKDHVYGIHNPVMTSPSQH
The experiment in a line: ELISA on membrane fraction of Caco-2 cells.

The target in assay [2] is T1, CD133 (prominin) (human). The experiment in a line: ELISA on membrane fraction from Caco-2 cells. For orientation: An ELISA detects its analyte on a solid surface through an enzyme-linked reagent.
Assay [3] concerns the target T1, CD133 (prominin) (human). Nature of the assay: ELISA on plasma membrane fraction of Caco-2 cells; relative equilibrium constant.

The molecule scFv-AC133 yielded a fold lower relative binding affinity than anti-CD133 monoclonal antibody in assay [1] of 2 fold. Besides, the fold lower affinity than the monoclonal antibody from which the scFv was derived in assay [2] is 3 fold. The molecule further registered a Kd in assay [3] of 155 nM.

B1: AC133 mouse monoclonal antibody purified from hybridoma (antibody, from another filing, V domains shown)
VH: QVQLQQSGAELVRPGASVKLSCKASGYTFSDFEMHWVKQTPVHGLEWIGDIDPGTGDTAYNLKFKGKATLTTDKSSSTAYMELRSLTSEDSAVYYCTLGAFVYWGQGTLVTVSA
VL: DVVVTQTPLSLPVSFGDQVSISCRSSQSLANSYGNTYLSWYLHKPGQSPQLLIYGISNRFSGVPDRFSGSGSGTDFTLKISTIKPEDLGMYYCLQGTHQPYTFGGGTKLEIKR
Take B1: in assay [3], the equilibrium dissociation constant (Kd) worked out at 83 nM.

As a reminder, the Kd is the concentration at which binding is half-saturated.

The values above are taken from patent US20110123533A1.
